First the molecules themselves.
B1: GDF15 antibody agent Clone B, IgG (antibody, V domains shown)
VH: QVQLQESGPGLVKPSQTLSLTCTVSGGSISSGGIYWTWIRQHPGKGLEWIGAIAYSGSTYYNPSLKSRVTISVDTSKNQFSLKLSSVTAADTAVYYCARGIEYQHFDYWGQGTLVTVSS
VL: not shown
B2: GDF15 antibody agent Clone Q, IgG (antibody, V domains shown)
VH: B1 VH
VL: not shown
B3: GDF15 antibody agent Clone D, IgG (antibody, V domains shown)
VH: B1 VH with S30N, I34Y, A54Y, Y60V, I101V, D107N, Y108E
VL: not shown
B4: GDF15 antibody agent Clone C, IgG (antibody, V domains shown)
VH: B1 VH with I34Y, T37S, A54V, S58H, I101V, D107S, Y108L
VL: not shown
B5: GDF15 antibody agent Clone R, IgG (antibody, V domains shown)
VH: B1 VH with K66E
VL: not shown
B6: GDF15 antibody agent Clone K, IgG (antibody, V domains shown)
VH: QVQLVQSGAEVKKPGASVKVSCKASGYTFTNEGISWVRQAPGQGLEWMGWISAYTADTFYAQKLQGRVTMTTDTSTSTAYMELRSLRSDDTAVYYCARTRHDTSGLRFDYWGQGTLVTVSS
VL: DIQMTQSPSSVSASVGDRVTITCRASQGIDSWLAWYQQKPGKAPKLLIYAASSLQSGVPSRFSGSGSGTDFTLTISSLQPEDFATYYCQQVHSFPITFGGGTKVEIKR
B7: GDF15 antibody agent Clone L, IgG (antibody, V domains shown)
VH: B6 VH with T30A, N31S, E32Y, G33D, S35I, Y54L, T55S, A56G, F59V, L106I
VL: B6 VL
B8: GDF15 antibody agent Clone M, IgG (antibody, V domains shown)
VH: QVQLVQSGAEVKKPGASVKVSCKASGYTFDSYGINWVRQAPGQGLEWMGWISAYSGDTAYAQELQGRVTMTTDTSTSTAYMELRSLRSDDTAVYYCVRDTQYGGSPYWGQGTLVTVSS
VL: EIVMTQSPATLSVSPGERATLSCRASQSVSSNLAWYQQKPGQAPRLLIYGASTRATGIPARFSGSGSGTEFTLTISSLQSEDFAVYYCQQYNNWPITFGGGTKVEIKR
B9: GDF15 antibody agent Clone N, IgG (antibody, V domains shown)
VH: B8 VH with D30T, S31D, N35F, S52T, A59H, E63K
VL: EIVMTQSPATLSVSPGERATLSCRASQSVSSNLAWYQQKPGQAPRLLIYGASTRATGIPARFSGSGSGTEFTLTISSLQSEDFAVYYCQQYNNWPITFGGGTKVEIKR

Broadly, the Kd is the free concentration of one partner at which half of the binding sites on the other are occupied at equilibrium, for simple one-to-one binding. The low end stands for a tighter complex, the high end for a looser complex.

Substitutions are numbered along the chain they refer to.

T6 sequence (O95390 299-407 limits assumed): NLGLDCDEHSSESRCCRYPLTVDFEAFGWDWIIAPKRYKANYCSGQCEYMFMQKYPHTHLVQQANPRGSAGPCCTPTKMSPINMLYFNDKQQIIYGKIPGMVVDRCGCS

One test concerns the target T1, Human BMP9 (human, UniProt Q9UK05 320-429).
T1 sequence (looked up): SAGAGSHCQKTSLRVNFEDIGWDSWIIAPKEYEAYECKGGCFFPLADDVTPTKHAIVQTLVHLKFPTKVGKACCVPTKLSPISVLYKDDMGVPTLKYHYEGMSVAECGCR
The test can be described thus: BLI Octet; IgG on sensor, 100 nM antigen (avid).
For the molecule B1, the binding result is “binds”.
The same measure, in the same setting: under B2 stands “binds”; under B3, “binds”.
Still for that read-out and setting: the result for B4 reads “binds”; that for B5, “binds”.

In the next test the target is T2, Human Activin B (human, UniProt P09529 293-407).
T2 sequence (looked up): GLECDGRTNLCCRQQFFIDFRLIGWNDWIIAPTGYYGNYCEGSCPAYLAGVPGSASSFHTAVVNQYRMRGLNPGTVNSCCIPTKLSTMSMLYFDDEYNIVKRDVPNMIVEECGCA
Description: BLI Octet; IgG on sensor, 100 nM antigen (avid). In general terms: In BLI a coated tip is dipped into the sample, and binding shifts an interference pattern.
In the case of B1, the Kd was determined as 145 nM.
In turn, B2 showed a dissociation constant (Kd) of 172 nM.
On the same count and under the same terms, the result for B4 reads 132 nM; that for B5, 188 nM.

The target in the next test is T3, Human Activin A Fc (human, UniProt P08476 311-426).
T3 construct: not shown: Fc part
T3 sequence (looked up): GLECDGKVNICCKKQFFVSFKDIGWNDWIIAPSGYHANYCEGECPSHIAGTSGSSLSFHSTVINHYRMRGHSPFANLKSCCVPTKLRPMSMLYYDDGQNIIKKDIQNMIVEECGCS
The test can be described thus: BLI Octet; IgG on sensor, 100 nM antigen (avid).
On to B3, for which the dissociation constant (Kd) was 7.87 nM.
B4 yielded a Kd of 6.48 nM.

For a further test, the target named is T4, GDNF (UniProt P39905 78-211).
T4 sequence (looked up): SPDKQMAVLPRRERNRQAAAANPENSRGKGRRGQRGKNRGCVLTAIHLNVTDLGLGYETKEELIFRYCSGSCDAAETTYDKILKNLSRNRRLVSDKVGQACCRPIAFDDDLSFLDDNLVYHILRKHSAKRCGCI
The test can be described thus: BLI Octet; IgG on sensor, 100 nM antigen (avid).
The molecule B6 came in with a Kd of 333 nM.
Same read-out and setting: under B7 stands 229 nM.
Regarding B8, binding was characterised by a dissociation constant (Kd) of 31.4 nM.
Still for that read-out and setting: the result for B9 reads 2.56 nM.

A further test concerns the target T1, Human BMP9. Description: BLI Octet; IgG on sensor.
In the case of B6, the binding result is on record as “no binding (tested: 100 nM)”.
Still for that read-out and setting: the result for B7 reads “no binding (tested: 100 nM)”; that for B8, “no binding (tested: 100 nM)”.
The same measure, in the same setting: under B9 stands “no binding (tested: 100 nM)”.

Another test addresses GDF8 (UniProt O14793 267-375). Description: BLI Octet; IgG on sensor.
On to B6, for which the binding result is on record as “no binding (tested: 100 nM)”.
Same read-out and setting: under B7 stands “no binding (tested: 100 nM)”; under B8, “no binding (tested: 100 nM)”; under B9, “no binding (tested: 100 nM)”.
In the case of B1, the binding result is “no binding (tested: 100 nM)”.
B2: the binding result is reported as “no binding (tested: 100 nM)”.
On the same count and under the same terms, under B3 stands “no binding (tested: 100 nM)”.
The same measure, in the same setting: the result for B4 reads “no binding (tested: 100 nM)”; that for B5, “no binding (tested: 100 nM)”.

Another test addresses T2, Human Activin B. Description: BLI Octet; IgG on sensor.
Take B6: the binding result is “no binding (tested: 100 nM)”.
On the same count and under the same terms, the result for B7 reads “no binding (tested: 100 nM)”; that for B8, “no binding (tested: 100 nM)”.
As for B9, the binding result is reported as “no binding (tested: 100 nM)”.
Still for that read-out and setting: under B3 stands “no binding (tested: 100 nM)”.

The next test addresses T5, GDF10 (UniProt P55107 369-478).
T5 sequence (looked up): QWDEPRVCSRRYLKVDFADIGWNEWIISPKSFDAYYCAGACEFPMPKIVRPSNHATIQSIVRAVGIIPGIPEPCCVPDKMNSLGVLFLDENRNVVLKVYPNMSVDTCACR
The test can be described thus: BLI Octet; IgG on sensor.
Turning to B6, the binding result is “no binding (tested: 100 nM)”.
Still for that read-out and setting: the result for B7 reads “no binding (tested: 100 nM)”; that for B8, “no binding (tested: 100 nM)”.
Consider B9, for which the binding result is “no binding (tested: 100 nM)”.
Same read-out and setting: the result for B1 reads “no binding (tested: 100 nM)”; that for B2, “no binding (tested: 100 nM)”.
The same measure, in the same setting: under B5 stands “no binding (tested: 100 nM)”.

Another test has as its target T6, GDF11 (UniProt O95390 299-407).
T6 construct: Also used as ligand in the Activin 2B receptor/SMAD reporter assay
The test can be described thus: BLI Octet; IgG on sensor.
In the case of B6, the binding result was “no binding (tested: 100 nM)”.
On to B7, for which the binding result is listed as “no binding (tested: 100 nM)”.
As for B8, the binding result was “no binding (tested: 100 nM)”.
On the same count and under the same terms, under B9 stands “no binding (tested: 100 nM)”; under B1, “no binding (tested: 100 nM)”.
In the case of B2, the binding result is reported as “no binding (tested: 100 nM)”.
On the same count and under the same terms, under B3 stands “no binding (tested: 100 nM)”; under B4, “no binding (tested: 100 nM)”; under B5, “no binding (tested: 100 nM)”.

The next test addresses T3, Human Activin A Fc. Description: BLI Octet; IgG on sensor.
Take B6: the binding result is recorded as “no binding (tested: 100 nM)”.
On the same count and under the same terms, the result for B7 reads “no binding (tested: 100 nM)”; that for B8, “no binding (tested: 100 nM)”; that for B9, “no binding (tested: 100 nM)”.

For another test, the target named is T4, GDNF. Description: BLI Octet; IgG on sensor.
As for B1, the binding result is recorded as “no binding (tested: 100 nM)”.
For the molecule B2, the binding result is reported as “no binding (tested: 100 nM)”.
The same measure, in the same setting: under B3 stands “no binding (tested: 100 nM)”; under B4, “no binding (tested: 100 nM)”.
The same measure, in the same setting: the result for B5 reads “no binding (tested: 100 nM)”.

A further test concerns the target T7, Human BMP10 (human, UniProt O95393 317-424).
T7 sequence (looked up): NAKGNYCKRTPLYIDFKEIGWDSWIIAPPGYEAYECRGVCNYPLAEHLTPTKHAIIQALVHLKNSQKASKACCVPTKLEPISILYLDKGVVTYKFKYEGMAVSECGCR
Description: BLI Octet; IgG on sensor.
Turning to B6, the binding result is “no binding (tested: 100 nM)”.
With B7, the binding result was “no binding (tested: 100 nM)”.
Still for that read-out and setting: under B8 stands “no binding (tested: 100 nM)”; under B9, “no binding (tested: 100 nM)”.
Same read-out and setting: under B2 stands “no binding (tested: 100 nM)”.
Still for that read-out and setting: under B3 stands “no binding (tested: 100 nM)”.
In the case of B4, the binding result is on record as “no binding (tested: 100 nM)”.

The next test has as its target T8, GDF15 (ligand used in the GFRAL/RET cell assays) (UniProt Q99988 197-308, limits assumed).
T8 sequence (looked up): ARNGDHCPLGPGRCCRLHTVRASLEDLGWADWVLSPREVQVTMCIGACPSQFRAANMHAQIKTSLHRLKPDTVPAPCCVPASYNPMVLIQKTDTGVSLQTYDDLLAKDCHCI
The test can be described thus: cell-based or functional assay.
B6: the “GDF15-GFRAL RET pERK IC50 (pM)” value stood at 187 pM and the “GDF15-GFRAL-RET Luciferase IC50 (pM)” value came to 813 pM.
In the case of B7, the “GDF15-GFRAL RET pERK IC50 (pM)” value turned out to be 13.5 pM and the “GDF15-GFRAL-RET Luciferase IC50 (pM)” value was 274 pM.
As to B8, the “GDF15-GFRAL RET pERK IC50 (pM)” value was 88.7 pM.
Regarding B9, the “GDF15-GFRAL RET pERK IC50 (pM)” value is 99.7 pM.
For B1, the “GDF15-GFRAL RET pERK IC50 (pM)” value came to 104 pM and the “GDF15-GFRAL-RET Luciferase IC50 (pM)” value was 66.2 pM.
For the molecule B3, the “GDF15-GFRAL RET pERK IC50 (pM)” value stood at 50.4 pM and the “GDF15-GFRAL-RET Luciferase IC50 (pM)” value was determined as 58.7 pM.
As for B4, the “GDF15-GFRAL RET pERK IC50 (pM)” value was determined as 145 pM and the “GDF15-GFRAL-RET Luciferase IC50 (pM)” value is 39.6 pM.

Another test has as its target T9, Human GDF15 Fc (human, UniProt Q99988 195-308, limits assumed, biotinylated (EZ-Link Sulfo-NHS-Biotinylation Kit) in the SPR assay).
T9 construct: also called human GDF15-Fc fusion; biotinylated Human GDF15 Fc; not shown: Fc part
T9 sequence: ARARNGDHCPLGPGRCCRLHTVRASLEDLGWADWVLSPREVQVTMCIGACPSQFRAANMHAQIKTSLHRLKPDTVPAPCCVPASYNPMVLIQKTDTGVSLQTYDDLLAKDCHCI
Description: BLI Octet; IgG on sensor, 100 nM antigen (avid). The procedure: Briefly, ForteBio affinity measurements were performed by loading IgGs on-line onto AHC sensors. Sensors were equilibrated off-line in assay buffer for 30 min and then monitored on-line for 60 seconds for baseline establishment. Sensors with loaded IgGs were exposed to 100 nM antigen for 3 minutes, and afterwards were transferred to assay buffer for 3 min for off-rate measurement. All kinetics were analyzed using the 1:1 binding model.
B6: the Kd stood at 0.271 nM.
Same read-out and setting: the result for B7 reads 0.325 nM; that for B8, 0.317 nM.
Still for that read-out and setting: the result for B9 reads 0.336 nM; that for B1, 0.26 nM; that for B3, 0.263 nM.
The same measure, in the same setting: under B4 stands 0.254 nM.

The values are drawn from US20250382359A1 (BYOMASS, published 2025).
